In paper PMC4041915, “CBD binding domain fused γ-lactamase from Sulfolobus solfataricus is an efficient catalyst for (-) γ-lactam production” (BMC Biotechnology, 2014) one finds Km data, which are given here for 2 proteins.

Substrate in this data set: O=C1NC2C=CC1C2
As to the kind of experiment: purified protein. As to conditions: free enzyme, 50 mM phosphate pH 7.0, 70°C (standard assay), 4.6-32.2 mM substrate, racemate taken as the substrate (not stated for the kinetics), only (+) enantiomer hydrolysed.

B1: Cbd-Linker-Gla (cbd-linker-gla fusion enzyme; (+) γ-lactamase Gla) (Saccharolobus solfataricus P2) (protein)
chain: MGIKLPTLEDLREISKQFNLDLEDEELKSFLQLLKLQLESYERLDSLPDYTPRVKYQRTLGRPPMKEENPYGALVWITSIKGKEEGKLKGKRICIKDNVMIAGIPMLNGSKMLEGFVPHMDATVVSRILDEAGEIVAKTTCEDLCFSGGSHTSYPWPVLNPRNPEYMAGGSSSGSAVAVASGYCDMAVGGDQGGSIRIPSSWVGIYGLKPTHGLVPYTGAFSIEPTLDHLGPMANTVKDVALLLEVIAGRDELDSRQPDSLPPPPVKPYSKLIDGDVKDMKVGIVKEGFNWSNSEKDVDELVLDSAKKLEDYGIKVEDTSIPLHRMGLDIWTPIAIEGATATMILGSGVGWGRKGLFETQIADFFGNSLKSRARDLPNTVKGVLMLGYLMIKMYNNRYYAKARNLSIVLKEAYDSALRKYDALIMPTTPMKAMRYKSEPGFDEYFIMALGMINNTAPFDVTGHPAMNIPVGYSNGLPVGLMIIGRHFEEDKVLKLANVFERIKK
Turning to B1, the Km was determined as 14.3 ± 1.6 mM.

B2: Gla-Linker-Cbd (gla-linker-cbd fusion enzyme; (+) γ-lactamase Gla) (Saccharolobus solfataricus P2) (protein)
chain: B1 chain
Regarding B2, the Km (preparation has a low-) is 5.7 ± 0.1 mM.

As a reminder, the Km is the concentration of substrate that gives half-maximal velocity.
